# Values of other authors as cited in paper PMC11658791.
# Where two headings read alike, the source gives them in different places.
# Columns and labels:
# [1] = target: Colicin M (Cma) (Escherichia coli) (UniProt P05820)
# TonB (Escherichia coli) [2] = target: TonB (Escherichia coli) (UniProt P02929); experiment: ITC
# TonB (Escherichia coli) [3] = target: TonB (Escherichia coli) (UniProt P02929)
# [4] = target: FpvAI (Pseudomonas aeruginosa) (UniProt P48632)
# Chain of UniProt P48632 (P48632 44-815): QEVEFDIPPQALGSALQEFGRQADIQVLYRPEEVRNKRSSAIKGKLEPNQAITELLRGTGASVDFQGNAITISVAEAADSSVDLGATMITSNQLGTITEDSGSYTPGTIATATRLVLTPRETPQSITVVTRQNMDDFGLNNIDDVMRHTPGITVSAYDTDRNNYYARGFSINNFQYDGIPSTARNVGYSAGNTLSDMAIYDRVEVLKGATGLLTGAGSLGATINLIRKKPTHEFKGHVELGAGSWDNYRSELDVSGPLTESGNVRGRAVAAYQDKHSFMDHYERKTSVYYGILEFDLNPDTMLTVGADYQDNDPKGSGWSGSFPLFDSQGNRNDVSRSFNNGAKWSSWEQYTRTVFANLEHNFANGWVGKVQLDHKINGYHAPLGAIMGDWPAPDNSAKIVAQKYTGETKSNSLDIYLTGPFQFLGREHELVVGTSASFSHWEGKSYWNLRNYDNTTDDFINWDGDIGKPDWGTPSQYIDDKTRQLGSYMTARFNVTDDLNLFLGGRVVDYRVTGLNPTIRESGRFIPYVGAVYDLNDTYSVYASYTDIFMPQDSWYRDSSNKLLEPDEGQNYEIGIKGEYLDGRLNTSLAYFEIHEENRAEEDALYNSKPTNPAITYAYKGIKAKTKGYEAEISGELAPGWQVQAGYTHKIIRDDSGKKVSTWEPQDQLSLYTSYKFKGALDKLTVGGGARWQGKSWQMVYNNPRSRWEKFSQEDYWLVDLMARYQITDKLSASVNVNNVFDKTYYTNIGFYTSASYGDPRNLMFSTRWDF
# Chain of UniProt P02929 (P02929 whole entry): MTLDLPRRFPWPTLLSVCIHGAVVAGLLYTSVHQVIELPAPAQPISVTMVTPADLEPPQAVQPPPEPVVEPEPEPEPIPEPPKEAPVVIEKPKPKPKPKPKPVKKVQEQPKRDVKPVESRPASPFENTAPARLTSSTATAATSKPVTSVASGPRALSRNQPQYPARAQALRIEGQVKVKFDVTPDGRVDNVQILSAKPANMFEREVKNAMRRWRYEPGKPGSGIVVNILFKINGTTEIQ
# Chain of UniProt P05820 (P05820 whole entry): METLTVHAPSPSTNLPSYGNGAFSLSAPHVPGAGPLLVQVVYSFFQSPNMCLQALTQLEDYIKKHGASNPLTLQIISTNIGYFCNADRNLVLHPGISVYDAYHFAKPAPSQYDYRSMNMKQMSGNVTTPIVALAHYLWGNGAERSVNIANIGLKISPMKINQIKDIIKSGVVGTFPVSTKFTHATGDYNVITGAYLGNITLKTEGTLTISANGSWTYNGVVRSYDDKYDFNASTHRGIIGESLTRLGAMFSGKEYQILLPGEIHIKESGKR
substance,measurement,setting,value
FhuA (from UniProt P06971),Kd,[1],3.5 nM
same,Kd,TonB (Escherichia coli) [2],200 nM
same,Kd,TonB (Escherichia coli) [3],20 nM
Pyocin S2 (pyoS2NTD) N-terminal domain (from UniProt Q06584),Kd,[4],0.24 nM
